Data from the nanobody polyreactivity screen of Harvey et al. (2022).

Test: yeast display, Sf9 membrane polyspecificity reagent, FACS + sequencing; frameworks hold sequencing errors
Outline: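 Galactose induction of a Saccharomyces cerevisiae BJ5465 synthetic nanobody display library ran 36–48 hours. The cells were then stained for 1 hour at 4 °C with 10% biotinylated, detergent-solubilized Sf9 membrane reagent, pulled down on streptavidin microbeads and FACS-sorted into low and high (top ~1%) gates on expression and reagent-binding fluorescence. Labels for polyreactivity follow the gate of origin.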

Row | Sequence | polyreactivity (PSR sort gate)
1 | QVQLVESGGGLVQAGGSLRLSCAPSGSTFNFNAMGWYRQAPGKERELVAAISKSGTRTYYADSVKGRFTISRDNAKNTVYLQMNSLKPEDTAVYYCAAPAISSYDHGYWGQGTQVTVSS | high polyreactivity
2 | QVQLVESGGGLVQAGGSLRLSCAASGFTFRYYAMGWDRQAPGKERDWVAAITRRGGSTYYSDSVKGRFTISRDNAKNTVYLLMNSLKPEDTAVYYCAASLWTTSADYDYWGQGTQVTVSS | high polyreactivity
3 | QVQHVESVGGLVQAGGSLRLSCAASGRTFTSYDMGWYRQAPLTEREVVAAITGSYTYYADSVKGRFTISRDNAKNTVYLQFNSLKPEDTAVYYCAADEDDVVSGFLRYFYVSYYYWGQGTQVTVSS | low polyreactivity
4 | QVQLVESGGGLVQAGGSLRLSCAASGSTFWVNAMGWYRQAPGKERELVAAITVRGTSTYYADSVKGRFTISRDNAKNTVYLQMNSLKPEDTAVYYCAADTPSNSHDYWGQGTQVTVSS | low polyreactivity
5 | QVQLVESGGGLVQAGGSLRLSCAASGITFQIYAMGWYRQAPGKERELVAAISRSGGSSTNYADSVKGRFTISRDNAKNTVYLQMYSLNPEDTAVYYCAAVSPYTGGANDYWGQGTQVTVSS | high polyreactivity
6 | QVQLVESGGGLVQAGGSLRLSCAASGFTFVQYAMGWYRPAPGKERELVATISKSGGITYYADSVKGRFTISRDTAKNTVYLHMNSVKPEDTAVYYCAAAWYYSSRGFHATWGHDYWGQGTQVTVSS | low polyreactivity
7 | QVQLVESGGGLVQAGGSLRISCAASGLTSPIYAMGWYRQAPGKERELDAAISKNGGSTYYADSVKGRFTISRDNAKNTVYVQMNSLKPEDTAVYYCNAVVYHYTLDHEYDYWGQGTQVTVSS | high polyreactivity
8 | QVQLVESGGGLVQAGGSLRLSCAASGSTFQPYAMGWYRQAPGKERELVAAITFSGGSTYYADSVKGRFTISRDNAKNTVYLQMNSLKPEDTAVYYCAAYRRPDYGSWGQGTQVTVSS | high polyreactivity
9 | QVQLVESGGGLVQAGGSLLLSCAASGIIFSEYDMGWYRQAPGKESELVAAISKSGGRTYYADSVKVRFTISRDNAKNTGFLQMNSLKQEDTAVYYCAAGGRFRFTQYYKHYYWGQGTQVNVSS | high polyreactivity
10 | QVQLVESGGGLVQAGGSLRLSCAASGSIFQVYAMGWYRQAPGKETELVAAIRRRGGSTYYADSVKGRFTISRDNAKNTVYLQMNSLKPEDTAVDYCAARTVGFYRYDYWGLGTQVTVSS | low polyreactivity
11 | QVQLVESGGGLVQAGGSLRLSCAASGGTFQINAMGWYRQAPGKEREMVAAISAAGGRTYYADSVKGRFTISRDNANNTVYLQMNSLKPEDTAVSYCAADWSYQVGRHQYFPMRYDYWGQGTQVTVSS | high polyreactivity
12 | QVQLVESVVGLVQAGGSLRLSCAASGRTFRVNAMGWYRQAPGKERELVAAITWSGGTTYYADSVKGRFTISRDNAKNTVYLQMNSLKPEDTAVYYCAADRFWYGSWYDYWGHGTQVTVSS | high polyreactivity
13 | QVQLVESGGGLVQAGGSLRLSCAASGRIFGKYVMVWYRQEPGKERELVAGISWSAGSTYYADSVKGRFTISRDTAKNTVYLQMNSLKPEDSAVYSCAAGLEGGYDYWGQGTEVTVSS | low polyreactivity
14 | QVQLVESGGGLVQAGGSLRLSCAASGFTFVIYAMGWYRQAPGTERELVATITGSGGSTYYADSVKWRITISRDNAKNTVYLQMNSLKPEDTAVYYCAARRRYQRYSRYDYWGLGTQVTVSS | high polyreactivity
15 | QVQLVESGGGLVQAGGSLRLSCAASGRIFSFNGMGWYRQAPGKERELVAAITTSGGRTYYADSVKGRFTISRDNAKNTVYLQINSLKPEDTAVYYCAAELAWEYYWGQGTQVTVSS | low polyreactivity
16 | QVQLVESGGGLVQAGGSLRLSCAASGSTFGTNAMGWYRQAPGKERELVAAISTGGSTYYADSVKGRFTISRDNAKNTVYLQMNSLKPEDNAVYYCAALADYVRRASDYWGQGTQVTVSS | low polyreactivity
17 | QVQLVESGGGLVQAGGSLRLSCAASGSIFIYYAMGWYRQAPGKERELVARITGGGSTYYADSVKGRFTISRDNAKNTVYLQMNSLKPEDTAVYYCAKRGYHFLTKYDYWGQGTQVTVSS | low polyreactivity
18 | QVQLVESGGGLVQAGGSLRISCAASGSIFTFYAMGRYRQAPGKERELVATITWLGGSTYADSVKGRFTISRDNAKNTVYLQMNSLKPEDTAVYYCAKYLGRQHEKDLGGMNYWGQGTQVTVSS | high polyreactivity
19 | QVQLVESGGGLVQAGGSLRLSCAASGRIFPYYAMGWYRQAPGKERELVAAISLSGGSTYYADSVKGRFTISRDNAKNTVYLQMNSLKPEDTAVYYCNAVASTYGYYWYPGLGYDYWGQGTQVTVSS | low polyreactivity
20 | QVQLVESGGGLVQAGGSLRLSCAASGLTFAVYAMGWYRQAPGKERELVAAITYSGSRTYYADSVKGRFTISRDNAKNTVYLQMNSLKPEDTAVYYCNALYRRDIKFYYWGQGTQVTVSS | high polyreactivity
21 | QVQLVESGGGLVQAGGSLRLSCAASGNTFCPYAMGWYRPAPGKERELVARISRSGSSTYYADSVKGRFTISRDNAKNTVYLQMNSLKPEDSAVYYCARGRTIRSSRTVGSWGQGTQVTVSS | high polyreactivity
22 | QVQLVESGGGLVQAGGSLRLSCAASGRIFSRYAMGWYRQAPGKERELVAAISRRGGSTYYADSVKGRFTISRDNAKNTVYLQMNSLKPEDTAVYYCAADFSPYYDLATEISDYWGQGTQVTVSS | high polyreactivity

Row | Sequence | polyreactivity (PSR sort gate)
23 | QVQLVESGGGLVQAGGSLRLSCAASGNIFWLNAMGWYRQAPGKEREFVADITWSTGSTYYADSVKGRFTISRDNAKNTVYLQMNSLKPEDTAVYYCAADDGYFNYLILRFKYLYDYWGQGTQVTVSS | low polyreactivity
24 | QVQLVESGGGLVQAGGSLRLTCAASGFTFWWYTMGWYRQATGKERELVATITSGGRTNYADSVKGRFTISRDNAKNTVYLQMNSLKPEDTAVYYCNRVAYYSRYDTDDYWGQGTQVTVSS | high polyreactivity
25 | QVQLVESGGGLVQAGGSLRLSCAASGFTFRANGMGWYRQAPGKERELVATITSGGTTNYADSVKGRFTISRDNAKNSVYLQMNSLIPEDTAVYYCAKRFGPAYFRLYDYWGQGTQVTVSS | low polyreactivity
26 | QVQLVESGGGLVQAGGSLRLSWAASGSISGFNAMGWYRQAPGKERELVAAISYSGGRTYYADSVKGRFTISRDNAKNNVYLHMNSLKPEDTAVFYCAADKFMYSKYTVFRDVYWGQGTQVTLSS | high polyreactivity
27 | QVQLVESGGGLVQAGGSLRLSCAASGSIFTRYAMGWYRQEPGKERELVAAITTRGSSTYYADSVKGRFTISRDYAKNTVYLQMNSLKPEDTAVYYCATVVRLYRGRYRYDYWGQGTQVTVSS | high polyreactivity
28 | QVQLVESGGGLVQAGGSLLLSCAASGSIFGYYAMGWYRQAPGKERELVAAITRRGGSTYYADSVKGRFTISRDNAKNTVYLQMNSLKPEDTAVYYCNKVTRTEYDYWGQGTQVTVSS | high polyreactivity
29 | QVQLVESGGGLVQAGGSLRLSCAASGSIFKGYAMGWYRQAPGKERELVAAISRTGGSTYYADSVKGRFTISRDYAKNTVYLQMNSLKPEDTAVYYCAAYSASTYDSWGQGTQVTVSS | high polyreactivity
30 | QVQLVESGGGLVQAGGSLRLSCAASGSNFSPNAMGWYRQAPGKERELVAAIDTRDGTTYYADSVKGRFTISRDNAKNTVYLQMNSLKPEDTAVYYCAAGGPVRYGIATPTGAKRFGYWGQGTQVTVSS | low polyreactivity
31 | QVQLVESGGGLVQAGGSLRLSCAASGYTFPLYAMGLYRQAPGKERELVADINIGGASTYYADSVKGRFTISRDNAKNTVYLQMNSLKPEDTAVYYCAKEYYDGYFPTFDYDYWGQGTQVTVSS | low polyreactivity
32 | HVQLQESGGCLVQAGGSLRLSCAARGSNSRLDSMGWNRQASGKVRELVAAIDNGSTTYYADSVKGRLTISRDNAKYSVYLQMNSLKAEDTAVYFCAAVRGGGGTHAYWGQGTQVTVSG | low polyreactivity
33 | QLQLVESGGGLVQAGGSLRLISAASGLTFADYAMGWYRQAPGKERELVAAISSNGGSTNYADSVKGRFTISRDNAKNTVYLQMNSLKPEDTAVYYCAARPRNNARFWDYNYWGQGTQVTVSS | high polyreactivity
34 | QVQLVESGGGLVQAGGSLRLSCAASGFIFQANAMGWYRQAHGKERELVAAIRSGDRTYYADSVKGRFTISRDNAKNTVYLQMNSLKPEDTAVYYCAAFYHHYYRYDYWGQGTQVTVSS | low polyreactivity
35 | QVHLVESGGGLVQAGGSLRLSCAASGSTFGLNAMGWYRQAPGKERELVAAITRSDITNYADSVKGRFTISRDNAKNTVYLQMNSLKPEDTAVYYCNKTPDRHRRYFGYGYWGQGTQVTVSS | low polyreactivity
36 | QVQLVESGGGLVQAGGSLRLSSAASGSTVPRYAMGWDRQAPGKERAFVAVIWSGGSTYYAVSVKGRFTISRDNAKNTVYLQMNSLKPEDTAVYYCAAEYHTLSKYSGYATHDYWGQGTQVTVSS | low polyreactivity
37 | QVQLVESGGGIVKAAGSLRLSCAASGSTFKKYAMGWDRQAPRKERELVASISSGGGTYYADSVKGRFTISRDNAKNTVYVQMNSLKPEDTAVYYCAARYHYAKSPYRYYYWGQGTQVTVSS | high polyreactivity
38 | QVQLVESGGGLVQAGGSLRLSCAASGSTFGDNAMGWYRQAPGKERELVAAITSVGTTYYADSVKGRFTISRDNAKNTVYLQMNSLKPEDTAVYYCNAEYVWDDYFEFDYWGQGTQVTVSS | low polyreactivity
39 | QVQLVESGGGLDQAGGSLRLSCAASGRTFGKYAMGWYRQAPGKERELVAAITGGGGTKYADSVKGRFTISRDNAKNTFYLQMNSLKPEDTAVYYCAAASGSRRHGFWGQGTQVTVSS | high polyreactivity
40 | QVQLVESGGGLVQAGGSLRLSCAASGSTFFSNTMGWYRQAPGKERELVAAITSRGGRTYYADSVKGRFTISRDNAKNTVYLQMNSLKPEDTAVYYCAARFVLHGVYLKFYWGQGTQVTVSS | high polyreactivity
41 | QFQLVESGGGLYQAGGSLRLSCASSGITLYFYAMGWYRQAPGKVRELVAAISRGGRTYYADSVKGRFTISRDNAKNTVYLQMNSLKPEDTAVYYCAARYTSEYSAFDYWGQGTQVTVSS | low polyreactivity
42 | QVQLVESGGGLVQAGVSLRLSCAASGLTLRPYTMGWYRQAPGKERELVAAITGRGGRTHYADSVKGRFTISRDNAKNTVYLQMNSLKPEDTAVYYCAAAARVYVKVGYNYWGQGTQVTVSS | high polyreactivity
43 | QVQLVESGGGLVQAGGSLRLSCAATGITFEYNAMGWYRQAPGKERELVAAISLSSGSTYYADSVKGRFTISRDNAKNTVYLQMNSLKPEDTAVYYCNADTIIYEGGYWGQGTQVTVSS | low polyreactivity
